From PMC4958273, “Expression and preliminary characterization of human MICU2” (Biology Open, 2016)

Molecular target: the molecule itself
Experiment: SEC-MALS; Ca2+-bound condition (5 mM CaCl2); protein at 0.5-2.5 mg/ml, 200 µl injected, KW-G and KW-803 columns, 0.5 ml/min; monomer to dimer

B1: MICU2-NΔ84-CΔ28 (domain or fragment, human, UniProt Q8IYU8 84-406, looked up)
chain: SLRKQRFMQFSSLEHEGEYYMTPRDFLFSVMFEQMERKTSVKKLTKKDIEDTLSGIQTAGCGSTFFRDLGDKGLISYTEYLFLLTILTKPHSGFHVAFKMLDTDGNEMIEKREFFKLQKIISKQDDLMTVKTNETGYQEAIVKEPEINTTLQMRFFGKRGQRKLHYKEFRRFMENLQTEIQEMEFLQFSKGLSFMRKEDFAEWLLFFTNTENKDIYWKNVREKLSAGESISLDEFKSFCHFTTHLEDFAIAMQMFSLAHRPVRLAEFKRAVKVATGQELSNNILDTVFKIFDLDGDECLSHEEFLGVLKNRMHRGLWVPQHQS
notes: human MICU2 (BC031089.1), N-terminal deletion starting at amino acid 84, the C-terminal 28 amino acids deleted; lacks Cys413; Predicted molecular weight ~40 kDa; source: E. coli BL21 (DE3); purified (Ni-NTA, SEC) for MALLS; in lysate (cells mixed and sonicated together) for the pull-down; not shown: His-tag, N-terminal, kept
Q: For B1, which “stoichiometry N” value is on record?
A: The value was 2.
